Source: patent US11419945B2, “Antigen binding proteins” (Glaxo Group Limited, priority 2011, dated 2022)
Where a chain is given by its changes, count along the chain named. One block for each molecule: values may come before it.

What was measured:
[1] = target: T1, Human in house BCMA (Homo sapiens, UniProt Q02223); test: ProteOn analysis of CA8 chimeric and humanised constructs, human in house BCMA; format: binding; conditions: for ka / kd: Run 1, Human in house BCMA, ProteOn, 25° C.; for ka: in M-1s-1 (unit assumed); for kd: in s-1 (unit assumed); for off rate: Run 2, ProteOn, recombinant human BCMA, no affinity values obtained
T1 construct: CD33 signal peptide (N); TEV site (internal); Fc (C); made in house
Description: The initial screen of CA8 chimeric and humanised variants was carried out on the ProteOn XPR36 (Biorad). The method was as follows; Protein A was immobilised on a GLC chip (Biorad, Cat No: 176-5011) by primary amine coupling, CA8 variants were then captured on this surface and recombinant human BCMA (in house or commercial US Biological, B0410) materials (run 2 only)) passed over at 256, 64, 16, 4, 1 nM with a 0 nM injection (i.e. buffer alone) used to double reference the binding curves, the buffer used is the HBS-EP buffer. 50 mM NaOH was used to regenerate the capture surface. The data was fitted to the 1:1 model using the analysis software inherent to the ProteOn XPR36. Run 1 corresponds to the first screen of humanised CA8 variants (JO to J5 series) and run 2 to the second screen of humanised CA8 variants (J5 to J9 series). Both runs were carried out at 25° C.

[2] = tested on: Cyno in house BCMA; test: ProteOn analysis of CA8 chimeric and humanised constructs, cyno in house BCMA; format: binding; conditions: Run 1, Cyno in house BCMA, 25° C.; for ka: in M-1s-1 (unit assumed); for kd: in s-1 (unit assumed)
Cyno in house BCMA, sequence (as listed by the source): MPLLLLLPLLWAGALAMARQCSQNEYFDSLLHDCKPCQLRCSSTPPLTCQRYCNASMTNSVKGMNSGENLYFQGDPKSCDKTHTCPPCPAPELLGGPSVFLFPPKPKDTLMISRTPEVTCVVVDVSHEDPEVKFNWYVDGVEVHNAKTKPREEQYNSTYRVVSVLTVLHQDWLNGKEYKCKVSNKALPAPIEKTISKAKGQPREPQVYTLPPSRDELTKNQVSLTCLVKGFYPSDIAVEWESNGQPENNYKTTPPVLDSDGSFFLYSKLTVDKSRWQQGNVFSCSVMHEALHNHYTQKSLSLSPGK

T1 sequence (Q02223 with tags, fused parts or gaps limits assumed): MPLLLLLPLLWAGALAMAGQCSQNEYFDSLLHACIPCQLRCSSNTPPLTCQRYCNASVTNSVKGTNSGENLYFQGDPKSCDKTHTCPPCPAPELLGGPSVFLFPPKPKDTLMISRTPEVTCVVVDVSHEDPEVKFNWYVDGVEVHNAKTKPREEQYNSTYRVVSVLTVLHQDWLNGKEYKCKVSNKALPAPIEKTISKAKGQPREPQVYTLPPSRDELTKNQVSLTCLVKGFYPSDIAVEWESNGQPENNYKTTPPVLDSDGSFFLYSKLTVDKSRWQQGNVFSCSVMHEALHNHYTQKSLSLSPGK

B2: CA8 humanised J0M2: humanised CA8 anti-BCMA antibody, VH J0 (SEQ ID NO:11) + VL M2 (SEQ ID NO:35) (antibody, V domains shown)
VH: QVQLVQSGAEVKKPGSSVKVSCKASGGTFSNYWMHWVRQAPGQGLEWMGATYRGHSDTYYNQKFKGRVTITADKSTSTAYMELSSLRSEDTAVYYCARGAIYNGYDVLDNWGQGTLVTVSS
VL: DIQLTQSPSSLSASVGDRVTITCSASQDISNYLNWYQQKPGKAPELVIYYTSNLHSGVPSRFSGSGSGTDYTLTISSLQPEDFATYYCQQYRKLPWTFGQGTKLEIKR
modifications: Humansed antibody sequence
ka [1]: 2.25E+05 | kd [1]: 6.97E−05 | ka [2]: 3.26E+05 | kd [2]: 1.84E−04

B4: S307118G03 humanised H3L1: humanised S307118G03, VH H3 (SEQ ID NO:83) + VL L1 (SEQ ID NO:91) (antibody, V domains shown)
VH: QVQLVQSGAEVKKPGSSVKVSCKASGYTFTDYYMKWVRQAPGQGLEWIGEIYPNNGGITYNQKFKGRATLTVDKSTSTAYMELSSLRSEDTAVYYCANGYEFVYWGQGTLVTVSS
VL: B2 VL with L4M, D28G, E45K, V47L, N53S, R92S
modifications: Humansed antibody sequence
ka [1]: 4.69E+05 | kd [1]: 2.28E−03 | KD [2]: No

B9: CA8 humanised J1M1: humanised CA8 anti-BCMA antibody, VH J1 (SEQ ID NO:13) + VL M1 (SEQ ID NO:33) (antibody, V domains shown)
VH: B2 VH with G27Y, S30T
VL: B2 VL with L4M, E45K, V47L
modifications: Humansed antibody sequence
ka [1]: 2.27E+05 | kd [1]: 3.43E−04 | ka [2]: 3.33E+05 | kd [2]: 1.47E−04

B10: S307118G03 humanised H3L0: humanised S307118G03, VH H3 (SEQ ID NO:83) + VL L0 (SEQ ID NO:89) (antibody, V domains shown)
VH: B4 VH
VL: B2 VL with L4M, D28G, E45K, V47L, N53S, Y71F, R92S
modifications: Humansed antibody sequence
ka [1]: 2.86E+05 | kd [1]: 1.52E−03 | KD [2]: No

B11: CA8 humanised J1M2: humanised CA8 anti-BCMA antibody, VH J1 (SEQ ID NO:13) + VL M2 (SEQ ID NO:35) (antibody, V domains shown)
VH: B2 VH with G27Y, S30T
VL: B2 VL
modifications: Humansed antibody sequence
ka [1]: 2.15E+05 | kd [1]: 2.46E−04 | ka [2]: 3.19E+05 | kd [2]: 9.67E−05

B12: CA8 humanised J0M1: humanised CA8 anti-BCMA antibody, VH J0 (SEQ ID NO:11) + VL M1 (SEQ ID NO:33) (antibody, V domains shown)
VH: B2 VH
VL: B2 VL with L4M, E45K, V47L
modifications: Humansed antibody sequence
ka [1]: 2.31E+05 | kd [1]: 8.60E−05 | ka [2]: 3.32E+05 | kd [2]: 1.67E−04

Now from value to molecule, other results behind:

ka [1]: 2.67E+05 | kd [1]: 3.21E−05 | off rate [1]: beyond the sensitivity of the assay | kd [2]: 4.70E−05
B1: CA8 humanised J5M2: humanised CA8 anti-BCMA antibody, VH J5 (SEQ ID NO:21) + VL M2 (SEQ ID NO:35) (antibody, V domains shown)
VH: B2 VH with A24G, G27Y, S30T, K74T, A97T, N103D
VL: B2 VL
modifications: Humansed antibody sequence
ka [2]: 4.30E+05

ka [1]: 2.85E+05 | kd [1]: 1.25E−04 | kd [2]: 7.93E−05
B3: CA8 humanised J3M1: humanised CA8 anti-BCMA antibody, VH J3 (SEQ ID NO:17) + VL M1 (SEQ ID NO:33) (antibody, V domains shown)
VH: B2 VH with A24G, G27Y, S30T, K74T, A97T
VL: B2 VL with L4M, E45K, V47L
modifications: Humansed antibody sequence
ka [2]: 4.04E+05

ka [1]: 2.54E+05 | kd [1]: 7.04E−05 | kd [2]: 7.10E−05
B5: CA8 humanised J4M1: humanised CA8 anti-BCMA antibody, VH J4 (SEQ ID NO:19) + VL M1 (SEQ ID NO:33) (antibody, V domains shown)
VH: B2 VH with A24G, G27Y, S30T, M48I, V68A, I70L, K74T, A97T
VL: B2 VL with L4M, E45K, V47L
modifications: Humansed antibody sequence
ka [2]: 3.50E+05

ka [1]: 2.66E+05 | kd [1]: 9.64E−05 | kd [2]: 5.87E−05
B6: CA8 humanised J3M2: humanised CA8 anti-BCMA antibody, VH J3 (SEQ ID NO:17) + VL M2 (SEQ ID NO:35) (antibody, V domains shown)
VH: B2 VH with A24G, G27Y, S30T, K74T, A97T
VL: B2 VL
modifications: Humansed antibody sequence
ka [2]: 3.69E+05

ka [1]: 2.05E+05 | kd [1]: 9.87E−05 | kd [2]: 3.17E−05
B7: CA8 humanised J2M2: humanised CA8 anti-BCMA antibody, VH J2 (SEQ ID NO:15) + VL M2 (SEQ ID NO:35) (antibody, V domains shown)
VH: B2 VH with G27Y, S30T, A97T
VL: B2 VL
modifications: Humansed antibody sequence
ka [2]: 2.98E+05

ka [1]: 2.51E+05 | kd [1]: 7.06E−05 | kd [2]: 6.15E−05
B8: CA8 humanised J4M2: humanised CA8 anti-BCMA antibody, VH J4 (SEQ ID NO:19) + VL M2 (SEQ ID NO:35) (antibody, V domains shown)
VH: B2 VH with A24G, G27Y, S30T, M48I, V68A, I70L, K74T, A97T
VL: B2 VL
modifications: Humansed antibody sequence
ka [2]: 3.44E+05

ka [1]: 2.97E+05 | kd [1]: 4.32E−05 | off rate [1]: beyond the sensitivity of the assay | kd [2]: 5.41E−05
B13: CA8 humanised J5M1: humanised CA8 anti-BCMA antibody, VH J5 (SEQ ID NO:21) + VL M1 (SEQ ID NO:33) (antibody, V domains shown)
VH: B2 VH with A24G, G27Y, S30T, K74T, A97T, N103D
VL: B2 VL with L4M, E45K, V47L
modifications: Humansed antibody sequence
ka [2]: 4.81E+05

ka [1]: 2.04E+05 | kd [1]: 1.72E−04 | kd [2]: 6.46E−05
B14: CA8 humanised J2M1: humanised CA8 anti-BCMA antibody, VH J2 (SEQ ID NO:15) + VL M1 (SEQ ID NO:33) (antibody, V domains shown)
VH: B2 VH with G27Y, S30T, A97T
VL: B2 VL with L4M, E45K, V47L
modifications: Humansed antibody sequence
ka [2]: 2.96E+05
